System: Escherichia coli TOP10
Assay: shrunken log2 fold change of peptide-encoding DNA abundance (4.5 h post-induction vs induction); higher = less antimicrobial activity (less host growth inhibition)
Settings: time post-induction: 4.5 h; library: site-saturation at positions 5, 18, 19, 20
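Further: peptides expressed intracellularly from a pBAD plasmid library in pooled LB shake-flask culture, induced with 0.3% L-arabinose, DNA abundance read by NGS, three biological replicates, DESeq2 with apeglm shrinkage.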

Row | Sequence | shrunken log2 fold change
1 | RRIRCRPPRLPRPRPRPDRVPRP | -0.112
2 | RRIRCRPPRLPRPRPRPDSEPRP | 0.0197
3 | RRIRCRPPRLPRPRPRPDSGPRP | 0.0093
4 | RRIRCRPPRLPRPRPRPDSQPRP | -0.203
5 | RRIRCRPPRLPRPRPRPDTAPRP | -0.051
6 | RRIRCRPPRLPRPRPRPDTTPRP | 0.00602
7 | RRIRCRPPRLPRPRPRPDVMPRP | -0.101
8 | RRIRCRPPRLPRPRPRPDWEPRP | -0.524
9 | RRIRCRPPRLPRPRPRPDYCPRP | 0.25
10 | RRIRCRPPRLPRPRPRPECAPRP | 0.543
11 | RRIRCRPPRLPRPRPRPECFPRP | 0.165
12 | RRIRCRPPRLPRPRPRPEDDPRP | 0.159
13 | RRIRCRPPRLPRPRPRPEDNPRP | 0.11
14 | RRIRCRPPRLPRPRPRPEEWPRP | 0.0214
15 | RRIRCRPPRLPRPRPRPEGPPRP | 0.261
16 | RRIRCRPPRLPRPRPRPEGWPRP | 0.855
17 | RRIRCRPPRLPRPRPRPEHCPRP | -0.0294
18 | RRIRCRPPRLPRPRPRPEHGPRP | 0.11
19 | RRIRCRPPRLPRPRPRPEINPRP | 0.122
20 | RRIRCRPPRLPRPRPRPEIVPRP | -0.221
21 | RRIRCRPPRLPRPRPRPELHPRP | 0.0685
22 | RRIRCRPPRLPRPRPRPELNPRP | -0.137
23 | RRIRCRPPRLPRPRPRPEMSPRP | -0.129
24 | RRIRCRPPRLPRPRPRPENDPRP | -0.0268
25 | RRIRCRPPRLPRPRPRPEQLPRP | 0.407

Row | Sequence | shrunken log2 fold change
26 | RRIRCRPPRLPRPRPRPERLPRP | 0.0345
27 | RRIRCRPPRLPRPRPRPERMPRP | -0.015
28 | RRIRCRPPRLPRPRPRPERSPRP | 0.0846
29 | RRIRCRPPRLPRPRPRPESSPRP | -0.16
30 | RRIRCRPPRLPRPRPRPETFPRP | 0.07
31 | RRIRCRPPRLPRPRPRPEVTPRP | -0.0149
32 | RRIRCRPPRLPRPRPRPEWWPRP | -0.00726
33 | RRIRCRPPRLPRPRPRPEYFPRP | -0.0582
34 | RRIRCRPPRLPRPRPRPEYGPRP | -0.167
35 | RRIRCRPPRLPRPRPRPEYMPRP | 0.0436
36 | RRIRCRPPRLPRPRPRPEYSPRP | -0.38
37 | RRIRCRPPRLPRPRPRPFAMPRP | -0.495
38 | RRIRCRPPRLPRPRPRPFDMPRP | -0.309
39 | RRIRCRPPRLPRPRPRPFEEPRP | -0.0957
40 | RRIRCRPPRLPRPRPRPFFEPRP | -0.0214
41 | RRIRCRPPRLPRPRPRPFFLPRP | -0.512
42 | RRIRCRPPRLPRPRPRPFFNPRP | -0.687
43 | RRIRCRPPRLPRPRPRPFGGPRP | 0.0285
44 | RRIRCRPPRLPRPRPRPFGKPRP | -0.0592
45 | RRIRCRPPRLPRPRPRPFIAPRP | -0.613
46 | RRIRCRPPRLPRPRPRPFIRPRP | -0.249
47 | RRIRCRPPRLPRPRPRPFITPRP | -0.639
48 | RRIRCRPPRLPRPRPRPFKPPRP | -0.302
49 | RRIRCRPPRLPRPRPRPFKQPRP | -0.0402
50 | RRIRCRPPRLPRPRPRPFKSPRP | 0.122

Row | Sequence | shrunken log2 fold change
51 | RRIRCRPPRLPRPRPRPFLDPRP | -0.0521
52 | RRIRCRPPRLPRPRPRPFLQPRP | 1.41
53 | RRIRCRPPRLPRPRPRPFLSPRP | -0.28
54 | RRIRCRPPRLPRPRPRPFMMPRP | -0.266
55 | RRIRCRPPRLPRPRPRPFMNPRP | -0.00951
56 | RRIRCRPPRLPRPRPRPFMQPRP | -0.402
57 | RRIRCRPPRLPRPRPRPFNFPRP | -0.813
58 | RRIRCRPPRLPRPRPRPFNRPRP | -0.466
59 | RRIRCRPPRLPRPRPRPFNYPRP | -0.836
60 | RRIRCRPPRLPRPRPRPFPIPRP | -0.305
61 | RRIRCRPPRLPRPRPRPFPQPRP | -0.265
62 | RRIRCRPPRLPRPRPRPFRYPRP | -0.29
63 | RRIRCRPPRLPRPRPRPFSHPRP | -0.608
64 | RRIRCRPPRLPRPRPRPFSKPRP | -0.203
65 | RRIRCRPPRLPRPRPRPFTRPRP | -0.291
66 | RRIRCRPPRLPRPRPRPFWDPRP | 0.00555
67 | RRIRCRPPRLPRPRPRPFYAPRP | -0.813
68 | RRIRCRPPRLPRPRPRPFYDPRP | -0.826
69 | RRIRCRPPRLPRPRPRPFYMPRP | -1.15
70 | RRIRCRPPRLPRPRPRPGAVPRP | 0.202
71 | RRIRCRPPRLPRPRPRPGCRPRP | 0.569
72 | RRIRCRPPRLPRPRPRPGENPRP | 0.0862
73 | RRIRCRPPRLPRPRPRPGERPRP | 0.01
74 | RRIRCRPPRLPRPRPRPGGFPRP | 0.146
75 | RRIRCRPPRLPRPRPRPGGQPRP | -0.218

Row | Sequence | shrunken log2 fold change
76 | RRIRCRPPRLPRPRPRPGKDPRP | 0.124
77 | RRIRCRPPRLPRPRPRPGKLPRP | -0.111
78 | RRIRCRPPRLPRPRPRPGLDPRP | 0.191
79 | RRIRCRPPRLPRPRPRPGLGPRP | 0.512
80 | RRIRCRPPRLPRPRPRPGMAPRP | 0.418
81 | RRIRCRPPRLPRPRPRPGNGPRP | 0.217
82 | RRIRCRPPRLPRPRPRPGPMPRP | 0.326
83 | RRIRCRPPRLPRPRPRPGRQPRP | 0.285
84 | RRIRCRPPRLPRPRPRPGSHPRP | -0.0784
85 | RRIRCRPPRLPRPRPRPGTIPRP | 0.00164
86 | RRIRCRPPRLPRPRPRPGTLPRP | -0.237
87 | RRIRCRPPRLPRPRPRPGVAPRP | 0.632
88 | RRIRCRPPRLPRPRPRPGVLPRP | 0.121
89 | RRIRCRPPRLPRPRPRPGVVPRP | 0.147
90 | RRIRCRPPRLPRPRPRPGWHPRP | 0.269
91 | RRIRCRPPRLPRPRPRPHCFPRP | -0.429
92 | RRIRCRPPRLPRPRPRPHDHPRP | -0.307
93 | RRIRCRPPRLPRPRPRPHGGPRP | -0.154
94 | RRIRCRPPRLPRPRPRPHGMPRP | -0.114
95 | RRIRCRPPRLPRPRPRPHGSPRP | -0.0281
96 | RRIRCRPPRLPRPRPRPHGVPRP | 0.015
97 | RRIRCRPPRLPRPRPRPHHQPRP | -0.278
98 | RRIRCRPPRLPRPRPRPHKHPRP | -0.58
99 | RRIRCRPPRLPRPRPRPHLYPRP | 1.42
100 | RRIRCRPPRLPRPRPRPHMTPRP | -0.331

Row | Sequence | shrunken log2 fold change
101 | RRIRCRPPRLPRPRPRPHNGPRP | -1.03
102 | RRIRCRPPRLPRPRPRPHQDPRP | -0.365
103 | RRIRCRPPRLPRPRPRPHQTPRP | -0.0284
104 | RRIRCRPPRLPRPRPRPHRLPRP | -0.227
105 | RRIRCRPPRLPRPRPRPHSEPRP | -0.319
106 | RRIRCRPPRLPRPRPRPHTAPRP | -0.457
107 | RRIRCRPPRLPRPRPRPHTNPRP | -0.564
108 | RRIRCRPPRLPRPRPRPHTVPRP | -0.371
109 | RRIRCRPPRLPRPRPRPHVLPRP | -0.172
110 | RRIRCRPPRLPRPRPRPHWSPRP | -0.395
111 | RRIRCRPPRLPRPRPRPHYYPRP | -1.07
112 | RRIRCRPPRLPRPRPRPIANPRP | 0.0422
113 | RRIRCRPPRLPRPRPRPICFPRP | -0.241
114 | RRIRCRPPRLPRPRPRPIEFPRP | 0.191
115 | RRIRCRPPRLPRPRPRPIEIPRP | -0.223
116 | RRIRCRPPRLPRPRPRPIFWPRP | 0.235
117 | RRIRCRPPRLPRPRPRPIGAPRP | -0.0968
118 | RRIRCRPPRLPRPRPRPIGFPRP | 0.129
119 | RRIRCRPPRLPRPRPRPIGMPRP | -0.121
120 | RRIRCRPPRLPRPRPRPIHYPRP | -0.95
121 | RRIRCRPPRLPRPRPRPIIFPRP | -0.726
122 | RRIRCRPPRLPRPRPRPIKGPRP | -0.0586
123 | RRIRCRPPRLPRPRPRPIKNPRP | -0.311
124 | RRIRCRPPRLPRPRPRPIKWPRP | -0.343
125 | RRIRCRPPRLPRPRPRPILHPRP | -0.575

Row | Sequence | shrunken log2 fold change
126 | RRIRCRPPRLPRPRPRPIMCPRP | 0.0272
127 | RRIRCRPPRLPRPRPRPIMGPRP | 0.00854
128 | RRIRCRPPRLPRPRPRPINFPRP | -0.235
129 | RRIRCRPPRLPRPRPRPIPGPRP | -0.000108
130 | RRIRCRPPRLPRPRPRPIQVPRP | -0.191
131 | RRIRCRPPRLPRPRPRPIRQPRP | -0.0914
132 | RRIRCRPPRLPRPRPRPIRRPRP | 0.119
133 | RRIRCRPPRLPRPRPRPISHPRP | -0.486
134 | RRIRCRPPRLPRPRPRPISNPRP | -0.145
135 | RRIRCRPPRLPRPRPRPITRPRP | -0.429
136 | RRIRCRPPRLPRPRPRPIVMPRP | -0.235
137 | RRIRCRPPRLPRPRPRPIVYPRP | -0.788
138 | RRIRCRPPRLPRPRPRPIWEPRP | 0.0488
139 | RRIRCRPPRLPRPRPRPIYVPRP | -0.447
140 | RRIRCRPPRLPRPRPRPKARPRP | 0.315
141 | RRIRCRPPRLPRPRPRPKDQPRP | -0.0507
142 | RRIRCRPPRLPRPRPRPKDRPRP | -0.0193
143 | RRIRCRPPRLPRPRPRPKFRPRP | -0.375
144 | RRIRCRPPRLPRPRPRPKGMPRP | -0.148
145 | RRIRCRPPRLPRPRPRPKHFPRP | -0.209
146 | RRIRCRPPRLPRPRPRPKHWPRP | 0.00902
147 | RRIRCRPPRLPRPRPRPKICPRP | -0.0571
148 | RRIRCRPPRLPRPRPRPKIIPRP | -0.932
149 | RRIRCRPPRLPRPRPRPKKEPRP | 0.00726
150 | RRIRCRPPRLPRPRPRPKKHPRP | -0.217
